From patent US20140363865A1, “SUPPLEMENTATION OF FATTY ACIDS FOR IMPROVING ALCOHOL PRODUCTIVITY” (BUTAMAX ADVANCED BIOFUELS LLC, priority 2010, published 2014)
Each block holds one molecule with its values, some of them ahead of it.

Assays:
S. cerevisiae culture = settings: cerulenin added to the culture; cited from earlier work
[1] = Lipase screening for treatment of ground whole corn kernels prior to liquefaction (Example 25); assay type: biochemical; settings: 55° C., pH 5.8
Method: Seven reaction mixtures containing tap water (67.9 g) and ground whole corn kernels (35.1 g wet wt., ground with 1.0 mm screen using a hammer mill) at pH 5.8 were stirred at 55° C. in stoppered flasks. A 3-mL sample (t=0 h) was removed from each flask and the sample immediately frozen on dry ice, then ca. 0.5 mL of 10 mM sodium phosphate buffer (pH 7.0) containing 1 mg total soluble protein (10 ppm final concentration in reaction mixture) of one of the following lipases (Novozymes) were added to one of each flask: Lipolase® 100 L, Lipex® 100L, Lipoclean® 2000T, Lipozyme® CALB L, Novozyme® CALA L, and Palatase 20000L; no lipase was added to the seventh flask. The resulting mixtures were stirred at 55° C. in stoppered flasks, and 3-mL samples were withdrawn from each reaction mixture at 1 h, 2 h, 4 h and 6 h and immediately frozen in dry ice until analyzed for wt % lipid (derivatized as fatty acid methyl esters, FAME) and for wt % free fatty acid (FFA, derivatized as fatty acid methyl esters, FAME) according to the method described by Reference 1, and the percent free fatty acid content was calculated relative to the total combined concentrations of lipid and free fatty acid was determined for each sample.

[2] = Lipase treatment of ground whole corn kernels prior to liquefaction, then mixing with oleyl alcohol (Example 24); assay type: biochemical
Method: Tap water (1377.6 g) was added into each of two jacketed 2-L resin kettles, then 711.9 g wet weight (625.8 g dry weight) of ground whole corn kernels (1.0 mm screen on hammer mill) was added to each kettle with stirring. Each mixture was heated to 55° C. with stirring at 300 rpm, and the pH adjusted to 5.8 with 2 N sulfuric acid. To each mixture was added 21.0 g of an aqueous solution containing 1.008 g of Spezyme®-FRED L (Genencor®, Palo Alto, Calif.). To one mixture was then added 10.5 mL of aqueous solution of Lipolase® 100L Solution (21 mg total soluble protein, 10 ppm lipase final concentration) and to the second mixture was added 1.05 mL of aqueous solution of Lipolase® 100L Solution (2.1 mg total soluble protein, 1.0 ppm lipase final concentration). Samples were withdrawn from each reaction mixture at 1 h, 2 h, 4 h and 6 h at 55° C., then the temperature of the mixture was increased to 85° C. with stirring at 600 rpm and pH 5.8, and a sample was taken when the mixture first reached 85° C. After 120 minutes at 85° C., a sample was taken and the mixtures were cooled to 50° C. and final samples of the resulting liquefied corn mash were transferred to 50-mL polypropylene centrifuge tubes; all samples were stored frozen at −80° C.
In two separate reactions, a 50 g sample of the 10 ppm lipase-treated liquefied corn mash or a 55 g sample of the 1.0 ppm lipase-treated liquefied corn mash prepared as described above was mixed with oleyl alcohol (OA) (38 g) at 30° C. for 20 h, then the liquefied mash and OA in each reaction mixture were separated by centrifugation and each phase analyzed for wt % lipid (derivatized as fatty acid methyl esters, FAME) and for wt % free fatty acid (FFA, derivatized as fatty acid methyl esters, FAME) according to the method described by Reference 1. The % FFA in the OA phase of the liquefied mash/OA mixture prepared using heat inactivation of 10 ppm lipase during liquefaction was 98% at 20 h, compared to only 62% FFA in the OA phase of the liquefied mash/OA mixture prepared using heat inactivation of 1.0 ppm lipase during liquefaction.

[3] = Heat inactivation of lipase in lipase-treated liquefied corn mash mixed with oleyl alcohol (Example 22); assay type: biochemical
Method: Tap water (918.4 g) was added to a jacketed 2-L resin kettle, then 474.6 g wet weight (417.6 g dry weight) of ground whole corn kernels (1.0 mm screen on hammer mill) was added with stirring. The mixture was heated to 55° C. with stirring at 300 rpm, and the pH adjusted to 5.8 with 2 N sulfuric acid. To the mixture was added 14.0 g of an aqueous solution containing 0.672 g of Spezyme®-FRED L (Genencor®, Palo Alto, Calif.), and the temperature of the mixture increased to 85° C. with stirring at 600 rpm and pH 5.8. After 120 minutes at 85° C., the mixture was cooled to 50° C. and 45.0 mL aliquots of the resulting liquefied corn mash were transferred to 50-mL polypropylene centrifuge tubes and stored frozen at −80° C.
In a first reaction, 50 g of liquefied corn mash prepared as described above was mixed with 10 ppm Lipolase® 100 L (Novozymes) for 6 h at 55° C. and with no inactivation of lipase at 85° C. for 1 h, the mixture was cooled to 30° C. In a second reaction, 50 g of liquefied corn mash was mixed with 10 ppm Lipolase® for 6 h at 55° C., then heated to 85° C. for 1 h (lipase inactivation), then cooled to 30° C. In a third reaction, 50 g of liquefied corn mash without added lipase was mixed for 6 h at 55° C., and with no heating at 85° C. for 1 h, the mixture was cooled to 30° C., 38 g of oleyl alcohol was added, and the resulting mixture stirred for 73 h at 30° C. In a fourth reaction, 50 g of liquefied corn mash without added lipase was mixed for 6 h at 55° C., then heated to 85° C. for 1 h, then cooled to 30° C. Each of the four reaction mixtures was sampled at 6 h, then 38 g of oleyl alcohol added, and the resulting mixtures stirred at 30° C. and sampled at 25 h and 73 h. Samples (both liquefied mash and oleyl alcohol (OA)) were analyzed for wt % lipid (derivatized as fatty acid methyl esters, FAME) and for wt % free fatty acid (FFA, derivatized as fatty acid methyl esters, FAME) according to the method described by Reference 1.

[4] = 0 h (sample before lipase addition)

Molecule: C/C=C/C/C=C/CCC(=O)[C@H]1O[C@H]1C(N)=O [Cerulenin, cerulenin]
growth of S. cerevisiae culture (S. cerevisiae culture): inhibition of the growth

% FFA [1, 4]: 33%
% FFA ([1]; 1 h, 10 ppm lipase): 56%
% FFA ([1]; 2 h, 10 ppm lipase): 74%
% FFA ([1]; 4 h, 10 ppm lipase): 76%
% FFA ([1]; 6 h, 10 ppm lipase): 79%
% FFA ([2]; 1.0 ppm lipase at 55° C., 1 h, pre-liquefaction): 54%
% FFA ([2]; 1.0 ppm lipase at 55° C., 2 h, pre-liquefaction): 51%
% FFA ([2]; 1.0 ppm lipase at 55° C., 4 h, pre-liquefaction): 58%
% FFA ([2]; 1.0 ppm lipase at 55° C., 6 h, pre-liquefaction): 57%
% FFA ([2]; 1.0 ppm lipase, 0 h, 85° C., liq. mash): 49%
% FFA ([2]; 1.0 ppm lipase, 2 h, 85° C., liq. mash): 50%
% FFA ([2]; 1.0 ppm lipase, mix with OA, 20 h, 30° C., OA): 62%
% FFA ([2]; 1.0 ppm lipase, mix with OA, 20 h, 30° C., liq. mash): 20%
% FFA ([2]; 10 ppm lipase at 55° C., 1 h, pre-liquefaction): 74%
% FFA ([2]; 10 ppm lipase at 55° C., 2 h, pre-liquefaction): 77%
% FFA ([2]; 10 ppm lipase at 55° C., 4 h, pre-liquefaction): 82%
% FFA ([2]; 10 ppm lipase at 55° C., 6 h, pre-liquefaction): 87%
% FFA ([2]; 10 ppm lipase, 0 h, 85° C., liq. mash): 86%
% FFA ([2]; 10 ppm lipase, 2 h, 85° C., liq. mash): 85%
% FFA ([2]; 10 ppm lipase, mix with OA, 20 h, 30° C., OA): 98%
% FFA ([2]; 10 ppm lipase, mix with OA, 20 h, 30° C., liq. mash): 48%
% FFA ([3]; 10 ppm active lipase, no 85° C. heat treatment, 6 h, liq. mash): 89%
% FFA ([3]; 10 ppm active lipase, no 85° C. heat treatment, 25 h, OA): 40%
% FFA ([3]; 10 ppm active lipase, no 85° C. heat treatment, 25 h, liq. mash): 20%
% FFA ([3]; 10 ppm active lipase, no 85° C. heat treatment, 73 h, OA): 21%
% FFA ([3]; 10 ppm active lipase, no 85° C. heat treatment, 73 h, liq. mash): 18%
% FFA ([3]; 10 ppm inactive lipase, 85° C. heat treatment, 6 h, liq. mash): 89%
% FFA ([3]; 10 ppm inactive lipase, 85° C. heat treatment, 25 h, OA): 99%
% FFA ([3]; 10 ppm inactive lipase, 85° C. heat treatment, 25 h, liq. mash): 53%
% FFA ([3]; 10 ppm inactive lipase, 85° C. heat treatment, 73 h, OA): 95%
% FFA ([3]; 10 ppm inactive lipase, 85° C. heat treatment, 73 h, liq. mash): 62%
B1: Lipolase ® 100 L: commercial lipase preparation available from Novozymes (protein, UniProt O59952 23-291, looked up)
Lipase: EVSQDLFNQFNLFAQYSAAAYCGKNNDAPAGTNITCTGNACPEVEKADATFLYSFEDSGVGDVTGFLALDNTNKLIVLSFRGSRSIENWIGNLNFDLKEINDICSGCRGHDGFTSSWRSVADTLRQKVEDAVREHPDYRVVFTGHSLGGALATVAGADLRGNGYDIDVFSYGAPRVGNRAFAEFLTVQTGGTLYRITHTNDIVPRLPPREFGYSHSSPEYWIKSGTLVPVTRNDIVKIEGIDATGGNNQPNIPDIPAHLWYFGLIGTCL

% FFA [1, 4]: 37%
% FFA ([1]; 1 h, 10 ppm lipase): 49%
% FFA ([1]; 2 h, 10 ppm lipase): 59%
% FFA ([1]; 4 h, 10 ppm lipase): 62%
% FFA ([1]; 6 h, 10 ppm lipase): 66%
B2: Palatase ® 20000 L: commercial lipase preparation available from Novozymes (protein, UniProt P19515 95-363, looked up)
Lipase: SIDGGIRAATSQEINELTYYTTLSANSYCRTVIPGATWDCIHCDATEDLKIIKTWSTLIYDTNAMVARGDSEKTIYIVFRGSSSIRNWIADLTFVPVSYPPVSGTKVHKGFLDSYGEVQNELVATVLDQFKQYPSYKVAVTGHSLGGATALLCALDLYQREEGLSSSNLFLYTQGQPRVGDPAFANYVVSTGIPYRRTVNERDIVPHLPPAAFGFLHAGEEYWITDNSPETVQVCTSDLETSDCSNSIVPFTSVLDHLSYFGINTGLCT
